Results on 1 molecule are retold here after US20170009278A1 (NAVINCI DIAGNOSTICS, published 2017).

In this assay the target is T1, β catenin (UniProt P35222 2-781).
T1 construct: Detected with antibody Sc7199 (Santa-Cruz)
T1 sequence (looked up): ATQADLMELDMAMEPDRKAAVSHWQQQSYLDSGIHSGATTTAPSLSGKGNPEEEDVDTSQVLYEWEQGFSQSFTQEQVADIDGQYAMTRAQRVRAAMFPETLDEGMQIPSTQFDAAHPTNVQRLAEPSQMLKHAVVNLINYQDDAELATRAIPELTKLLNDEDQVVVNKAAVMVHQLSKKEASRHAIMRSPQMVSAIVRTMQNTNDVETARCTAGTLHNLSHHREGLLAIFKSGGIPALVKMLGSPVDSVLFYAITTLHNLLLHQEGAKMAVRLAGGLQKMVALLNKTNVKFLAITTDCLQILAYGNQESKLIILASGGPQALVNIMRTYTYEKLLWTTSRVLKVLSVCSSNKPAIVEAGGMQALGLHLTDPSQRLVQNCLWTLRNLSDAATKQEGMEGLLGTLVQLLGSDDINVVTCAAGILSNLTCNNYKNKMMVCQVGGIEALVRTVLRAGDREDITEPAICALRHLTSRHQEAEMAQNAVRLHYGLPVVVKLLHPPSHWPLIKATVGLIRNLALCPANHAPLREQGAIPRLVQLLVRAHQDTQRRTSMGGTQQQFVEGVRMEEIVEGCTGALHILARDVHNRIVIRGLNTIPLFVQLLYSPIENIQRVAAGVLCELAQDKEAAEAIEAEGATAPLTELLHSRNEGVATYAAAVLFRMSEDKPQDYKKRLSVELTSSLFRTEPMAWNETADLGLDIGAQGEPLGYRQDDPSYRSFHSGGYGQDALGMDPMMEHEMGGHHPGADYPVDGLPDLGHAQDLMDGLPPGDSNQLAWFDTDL
Nature of the assay: in situ prox-HCR and in situ PLA on DLD1 cells and colon tissue.

Protocol: For in situ PLA experiments the DuoLink kit (Olink Bioscience) was used according to manufacturer recommendations. Briefly DLD1 cells were rehydrated and permeabilized as described for prox-HCR. […] Cells were washed with DuoLink Wash buffer A two time for 5 min and incubated with proximity probes (PLUS and MINUS, Olink Bioscience) in antibody diluent (Olink Bioscience) for 1 h at 37° C. After a new round of washing steps ligation mix was applied to the cells and incubated for 30 min at 37° C. Additional washing was followed by RCA and fluorescent detection of the rolling circle products. Cells were counterstained with Hoechst and mounted as described above.
Fresh frozen healthy colon tissue was fixed using 3.7% formaldehyde solution at RT for 15 min. Slides were washed with PBS twice and then blocked using Duolink blocking reagent for 60 min at 37° C. […] The next day the slides were washed with PBS 3×2 min and blocked again for 30 min. The slides were incubated with proximity-probes directed against mouse and rabbit IgG for 1 h at 37° C. in HCR buffer. After two more washes with HCR buffer the slides were incubated with activator oligonucleotides for 30 min at 37° C. Slides were washed again twice with HCR buffer and slides were incubated with 20 nM HCR hairpins in HCR buffer for 1 h at 37° C. […]

B1: E-cadherin (receptor, UniProt P12830 155-882, looked up)
chain: DWVIPPISCPENEKGPFPKNLVQIKSNKDKEGKVFYSITGQGADTPPVGVFIIERETGWLKVTEPLDRERIATYTLFSHAVSSNGNAVEDPMEILITVTDQNDNKPEFTQEVFKGSVMEGALPGTSVMEVTATDADDDVNTYNAAIAYTILSQDPELPDKNMFTINRNTGVISVVTTGLDRESFPTYTLVVQAADLQGEGLSTTATAVITVTDTNDNPPIFNPTTYKGQVPENEANVVITTLKVTDADAPNTPAWEAVYTILNDDGGQFVVTTNPVNNDGILKTAKGLDFEAKQQYILHVAVTNVVPFEVSLTTSTATVTVDVLDVNEAPIFVPPEKRVEVSEDFGVGQEITSYTAQEPDTFMEQKITYRIWRDTANWLEINPDTGAISTRAELDREDFEHVKNSTYTALIIATDNGSPVATGTGTLLLILSDVNDNAPIPEPRTIFFCERNPKPQVINIIDADLPPNTSPFTAELTHGASANWTIQYNDPTQESIILKPKMALEVGDYKINLKLMDNQNKDQVTTLEVSVCDCEGAAGVCRKAQPVEAGLQIPAILGILGGILALLILILLLLLFLRRRAVVKEPLLPPEDDTRDNVYYYDEEGGGEEDQDFDLSQLHRGLDARPEVTRNDVAPTLMSVPRYLPRPANPDEIGNFIDENLKAADTDPTAPPYDSLLVFDYEGSGSEAASLSSLNSSESDKDQDYDYLNEWGNRFKKLADMYGGGEDD
notes: whole, on cells; Detected with antibody 610182 (BD Biosciences)
With B1, the binding result is recorded as “binds”.
